A short description of the data set: label from the status in PepcDB records.

Consider “MEKAGMHRTLNYRLRFDIPLVGKDCEYALVQDLPASVYISTDELDDLQRLKRLNAIYPKFVNIEVATERAQPFSVLLRGTPKITESLALPVHFRYHAPSDKRLAATVAIPLPELYLNCPMADSALIENELVARPDKLYCLNAPESRFDENHIKDGQPTTMANLERCNWRRVHVDCQLKMPLRAEIPVGHASAYGPVLCGTILLGWSLALWTIIHSMANTRRINQRLNEQRLLQQKVK”, for which the protein production entry is recorded as “failed”.
On to “MEKEMEDKEEFDEGEIEYTSYAGEHHLPLIMSLVDQELSEPYSIFTYRYFVYLWPQLCFLAFHKGKCVGTIVCKMGDHRQTFRGYIAMLVVIKPYRGRGIASELVTRAIKAMMESGCEEVTLEAEVSNKGALALYGRLGFIRAKRLYHYYLNGMDAFRLKLLFPKPRVPQIPSQVQTQQEYETFPRPRVP”, for which the protein production entry is reported as “failed”.
In the case of “MEKFMYSLGVSKKDKIYKDLLKIAIPTAIEFFLFNFISLTDNAMVAYLGDYPVAGVSLANKFFELFVTIGFSMAGAYNIIATRQYNQGDFKSFRNTFFISILTIILFSFPFILISIVNPFFLLRLISNDERAVYYGAAYLNIAIFSFVFAIIKGLIANALKVVEIVKFQVYISVFSVLLNFVFNYIFIFVFHMGVVGAAIATTVIRTLELIVYLVCTAFNKNSILHFKLDDLNINIKPFAQLIKFFIPILLNEFAWFFGYLVLTSIFIGIDTHKYAAYSISFSIYFIIFNIIHSFCISLNIMMGYEMHNSKKEIMKVAIYLSKIGLKLAFLTSFVLFIFSFFAPYIFYTLKYSHLIGIILRYSSVSAFFMALAFQYLFGFFRAGASPSFGAIMEGSVTFVYTIPIAFVLANYTNLPFEIIVFIPSLEDAIKLVVSLPYFYSERWIKSV”, the protein production result is recorded as “failed”.
Next, “MEKILDLLMSFVKEDEGKLDLASFPLRNTTAGAHLLLKTENVVASGIEVSRMFLEKMGLLSKFNVEDGEYLEGTGVIGEIEGNTYKLLVAERTLLNVLSVMFSVATTTRRFAEKLKHAKIAATRKILPGLGVLQKIAVVHGGGDPHRLDLSGCVMIKDNHLKMYGSAERAVQEVRKIIPFTTKIEVEVENLEDALRAVEAGADIVMLDNLSPEEVKDISRRIKDINPNVIVEVSGGITEENVSLYDFETVDVISSSRLTLQEVFVDLSLEIQR”: “not failed”; “MEKILDNIDKSMNIIISLFTIYNLIRGFWLNKNKKQLEKQREDLQKKLHQQNISNNNNISNSFNTTIHNETNIKNEIIDINQDLKNTLKSRNTSRNIAYIFTIFLFVLSFILYVIHYFKEQFKGYTIADFINSFIPSFEKLTDILTISYKSAIIVLLIINLIIAVLVILISMLKLKLKWRVAVSSLLYGILNYYVLISASSIDSKDIHYSIQEPKLSFIISFLYLMVGFITAFFSNYILYSYLFNSEFEDELFNQTIKRFFIWLALTVLFAFLSFINYHNGLQITLNFIKNLLNLI”: “failed”; “MEKKLKRRESMSTTAAESPPAKRRRTVTGNENSALIEGLPDHISEICLSLVHRPSLLSAVCTRWRRLLYSPEFPSFPSLYALFVDSTSDTGRVNPSVRFMCFNPVSSKWYPLPPPPPDPPLHRILYRHPSFISFNLPIQCVSAAGKLILIAGSNQQLSPAISHPLIFDPISSSWSSGPRIGSPRRWCATGACDGAIYIASGISSQFSSTVAKSVEKLDLTEQNRNNHRFNWEKLRDMRDLRFSREAIDAVGYRRKLLMVNVKGDAVKEGAIYDVVKDDWEPMPEEMLVGWRGPVAAMEEEILYSVDERRGTVRKYDDEKREWREVVVVEGGEEMLKGATQVTADSGKLCVVTGDGKIVVVDVAAEPAKIWNVEIPDGLEPVSVHVLPRMSQPNFC”: “failed”.
Next, “MEKKYIMFIIAMAISFLTTPIVRKFAKHIKAIDIPKDKRRVHKKPIPKIGGLAIYLAFVLVLVLKKGHLEKAEMGIIFGGGIIVLGGFIDDLKCLRPLYKVLFQLLGAFVLIGFGLRISMVTNPLSNSFSYIHINNFIGIAITIIWIIGVTNAFNLIDGLDGLSAGVGFISSVTIAIVAFLNGPTRSEAEILSVILAGSILGFLPYNFNPASIFMGDTGAQFLGFALAAISIQGAIKSASAVVLAVPILVLGLPIYDTIFAIIRRKINGKPITQADRGHLHHRLLDMGLSQKQAVLIMYFISAIMGLVAVIAMQLTNTKAYVIFAGAVICIVGLAWKFGLFKHK”: “failed”; “MEKLGAVLFDDPNLSMNRTMACSTCHMQAAGFSDARESEKVGRDVSLGDDGISLGDRNAPTAAYAKFTPPFGKNAAGEYIGGQFWDGRASLLEDQAGGPPLNPVEMGMPDKAAVVKRLRENPDYVAAFGTQFGKDVFASDESAYAAMTKALASFERSDEFSTFDSKYDRFLRGEEKLTDQEELGRVLISSTQFTNCNTCHEIRGAKGLEDGLFTNHKYFNIGVPANTSVRAVNGSKPDAVDLGLAQNPAVAGDPAQRGKFKVPTLRNVAVTGPYMHNGVFKDLRTVVLFYVKYKSKKPSRQINPETGKTWDAPEVPENIAMTELTSAPALDDKRVDAIVAFLKTLTDRRYEHLLPKEDGQTAAPTAQPVLSVTPKAP”: “failed”.
In the case of “MEKLTTLTGVAVPLRRSNVDTDQIIPAVFLKRVKKSGFDDALFYAWRRDPEFVLNKPEYKQGKILVAGPDFGIGSSREHAVWALHDYGFRVVISSRFADIFYGNTAKNGVLAAIMPQESIELLWKLLDEEPGREMTVSLEDRTVTCGDVTLPFEVNDYTRWRLMNGYDDIDLTLQHEDDIIAYEKMRAEKFPFKPKTLPVKREPEQPIESAREGEYPDWQGPLADRGII” it was “failed”; in that of “MEKMYNVGKIVNTHGLIGEIRVIATTDFPEERFQVGNTVYLFEKNSKKPEKLIIRSHRKHKNFDLLMFEGLTGIHQVERMKEGVLKIKEAQLTDLEENEFYFHEIIGTVVTTDGEELGEITEILTPGANDVWVVKGADKKEKLIPYIADVVKDINTNDKKITIEVMEGLLDLEHHHHHH”, “failed”.
Regarding “MEKNFILSVGMSVMFLFISSIKTVQAQQLGIGVKTELNGKVRFCNYDEAYFMPDTNTRIKVTGLEIAYDSSLNYYDIFVNVKGDKVNLHIKYSNGGEGAYIYKGIDRISKMDVVVTTKKKLSLYANNYGVNSYKEVESSVGIIIVFPKTYMISSIVPIKNKVETVNELSTQLRKGVITDSDGYTNIRKSNSVNSEIIGKIVDREVFTYWETNDNWYIVQTAKGIKGYVHKSRIKPVEERNEQKIRYYKVKNGDKIQDIAEKLGVSIDTICKLNRVKITTVLREGQALRISR”, the protein production entry is reported as “failed”.
Consider “MEKNQSDDDGTALIFLGTGCSGAVPDFRCLLQPSDPPCHVCSQSLSLLPHLNPNYRCNTSLLIDYCSKEEDGRHKYILIDVGKSFREQIILTHEHADAVHGLDEIRSLQPRGATIVDTDPLPVFLSQFTMESIATRFPYLVEKKVKEVPRRVSLLDWKNIEENCDEPFAASGLSFTPLPVMHGEDYIALGFLFGDKSKVAYISDVSRIPPSTEYAISKAGAGQLDLLILDTNIPWKRGPHPTHICFTEALEILKRLCPKRALLTGMTHEFDHHEYNEILAEWSLRDYVDF”, for which the protein production entry is listed as “failed”.
With “MEKPDINVAEAWEQYWNKTLVNATPVLWDANVERAVVVDLPRFQSFFDTELPLIDFACGNGTQTKFLSQFFPRVIGFDVSKTALEMASKENTAANISYRLLDGLVPEQAAQIHSEIGDANIYMRTGFHHIPVEKRELLAQSLRTLLGKQGVMYLIELGTGCIEFFNSLLEKYGKLPYELSLVMEHGIRPGIFTTEDIELYFPDFEILSQGESLFQSIHKLPDGNYATPPAFWAVIKRHLEHHHHHH”, the protein production result is reported as “not failed”.
Consider “MEKPGGFWIPKKSNKESSWEELAFAEDDAAGSLWPPRSYTCSFCRREFKSAQALGGHMNVHRRDRARLKQADDQYLFPKSSSSPEYPSHKDSDNIHETSCYTLVFNTKPNYFKTQHSCVIDLSSSSSLPYLTPSRVSSGLPGKQHTSSSPPSFVVEPSKNSKYIPSSSPWSCPSTVVEQKSCDLYEIPAMEGEKKRKTESDVPKIGHKAKLSLGNTTDLSVSMNLVIHQSFPITAHGSDEEIGRVDIRKRRRRHESPSQQSIFISSLSCKSDIITRNEESKHKGDRFEDLDLELRLGTDPPKGI”, for which the protein production entry is listed as “failed”.
Next, “MEKQNLKNTEVNLIYGVDDDLDLPKKVLFGLQHIFAAFGGIIVVPLVIATSLGFDSKVTTALISASILGSGLATIIQAKGVGKVGARVACIMGTDFTFVSPAISVGSVLGLPGIIGATILGSLFEVILSFFIKPLMKFFPPLVTGTVVALIGLTLLPVSIDWAAGGAGSANYASLENLAVAMFVLVITLLLNNYGKGMISSASILIGIVVGYIVCIPLGLVDFTPVKEASWLSFPKILEFGVTFDAKAVMAFIPAYFVATIGTVGCLKAIGETSNIDIGDKRVAAGVLSDGVGSALGGLVGSCPNTSFSQNIGIISLTKVASRHVAVMAGILLVILGFLPKVAAIITGIPNPVLGGVGIMMFGTVAAAGIRTLSNIKLTERNLLIIAISMGLGLGVTFRPDVIHNLPEAIRMIFSSGISTGTIAALILNAVLKESPTSMEFENMYDEETKAS”: “failed”; “MEKTIIAALLMLISLISYAQGLMWTAKAELNMSSMSNVEESKMHPGFYAGIGAGYVIDETRSVRPSLLFTMKGVKQDYKF”: “failed”; “MEKVTKMISRMMVRVVTVAFALSLVAVACHEAEARAGGGRSFGSRGTRTYRPPTRTVDPAPASRPQPAPAVPQTFPQQRQGGSFLRSMAGGIVGGLLGGMLFRSLGFAGPGAGGVGLFDILLIGGILYLVYRFVASRRREAAATAGRAPDWSREEPVTPQQYRYGQPAESVPAAGADSGLAHVRQMDGSFSEEQFRQLAQDVFFRVQGAWTRRDLSSAREVLAPEMERALQGDVAELKARGQVNRLENIAVRQVELVEAWQEEGCDFITVRFLANLLDYTTDEEGRVLSGSDREPVKFEEFWTFTRPVGPNPWKLSAIQQA”: “failed”.
Next, “MEKYIHSVEDYHRLISYLENNLNYEDSVVNHVIYVIAKTGMRYGEIIGLTNNDTSLDEHYLHTYKRYNTSTWKWTNAKNESSKRYIPIDDKIVAALSNMIKERERINSLLRIKNKEEFLFFHYGLEHGIPSVATVNKALKKILKKLDIEPIITTKGLRHTYGSYLLHNNIDMGVVARILGHKDIQMLIQVYGHTLTEKIDKEFKEVEQIMNRILEHHHHHH”: “failed”; “MELDDAYANGAYIEGAADYPPRWAASAEDFRNSLQDRARLNLSYGEGDRHKFDLFLPEGTPVGLFVFVHGGYWMAFDKSSWSHLAVGALSKGWAVAMPSYELCPEVRISEITQQISQAVTAAAKEIDGPIVLAGHSAGGHLVARMLDPEVLPEAVGARIRNVVPISPLSDLRPLLRTSMNEKFKMDADAAIAESPVEMQNRYDAKVTVWVGGAERPAFLDQAIWLVEAWDADHVIAFEKHHFNVIEPLADPESDLVAVITA”: “not failed”.
As to “MELELDDDVFFADISKQLNLLITDEDEQNPISLSSSVSFQGLFRGNYQTSATPYMMYNEQINYNVIRESKGTGVFIPRSSQPRRKHNHHPHQKKQGRFIGSFIPKQQFPHHGHDNNLTTLNNNNQESITFHHASTNPRRTYRDAASLFT”, the protein production entry is given as “failed”.
Next, “MELFTEAWAQAYCRKLNESEAYRKAASTWEGSLALAVRPDPKAGFPKGVAVVLDLWHGACRGAKAVEGEAEADFVIEADLATWQEVLEGRLEPLSALMRGLLELKKGTIAALAPYAQAAQELVKVAREVA”: “not failed”; “MELIEVQEGKAKILIPKAESIYDSPVFYNPRMALNRDIVVVLLNILNPKIVLDALSATGIRGIRFALETPAEEVWLNDISEDAYELMKRNVMLNFDGELRESKGRAILKGEKTIVINHDDANRLMAERHRYFHFIDLDPFGSPMEFLDTALRSAKRRGILGVTATDGAPLCGAHPRACLRKYLAVPLRGELCHEVGTRILVGVIARYAAKYDLGIDVILAYYKDHYFRAFVKLKDGARKGDETLEKLGYIYFDDKTGKFELEQGFLPTRPNAYGPVWLGPLKDEKIVSKMVKEAESLSLARKKQALKLLKMIDQELDIPLFYDTHAIGRRLKIETKKVEEIISALREQGYEATRTHFSPTGIKTSAPYEVFIETIKRI”: “not failed”.
